# Experimental data as given in US11795460B2, “Compositions and methods for TTR gene editing and treating ATTR amyloidosis” (Intellia Therapeutics, Inc., priority 2017, dated 2023).
# Strand notation (5' to 3'): a small letter for the sugar, then the base; units joined by * are phosphorothioate-linked, units joined directly phosphodiester-linked; [ ] holds rarer units or linkages, { } end groups; capitals alone tell only the bases. m = 2'-O-methyl; r = 2'-OH (RNA)
# B1: G000502: TTR Cyno specific sgRNA modified sequence, SEQ ID No. 114; guide sequence of CR000689; cross homologous between mouse and cyno (nucleic acid)
# guide: mA*mC*mA*rCrArArArUrArCrCrArGrUrCrCrArGrCrGrGrUrUrUrUrArGrAmGmCmUmAmGmAmAmAmUmAmGmCrArArGrUrUrArArArArUrArArGrGrCrUrArGrUrCrCrGrUrUrArUrCrAmAmCmUmUmGmAmAmAmAmAmGmUmGmGmCmAmCmCmGmAmGmUmCmGmGmUmGmCmU*mU*mU*mU
# B2: G000500: TTR sgRNA modified sequence, Human, SEQ ID No. 107; guide sequence of CR003337 (nucleic acid)
# guide: mC*mC*mA*rGrUrCrCrArGrCrArArGrGrCrArGrArGrGrGrUrUrUrUrArGrAmGmCmUmAmGmAmAmAmUmAmGmCrArArGrUrUrArArArArUrArArGrGrCrUrArGrUrCrCrGrUrUrArUrCrAmAmCmUmUmGmAmAmAmAmAmGmUmGmGmCmAmCmCmGmAmGmUmCmGmGmUmGmCmU*mU*mU*mU
# B3: G000493: TTR sgRNA modified sequence, Human, SEQ ID No. 100; guide sequence of CR003368 (nucleic acid)
# guide: mA*mA*mG*rUrGrCrCrUrUrCrCrArGrUrArArGrArUrUrGrUrUrUrUrArGrAmGmCmUmAmGmAmAmAmUmAmGmCrArArGrUrUrArArArArUrArArGrGrCrUrArGrUrCrCrGrUrUrArUrCrAmAmCmUmUmGmAmAmAmAmAmGmUmGmGmCmAmCmCmGmAmGmUmCmGmGmUmGmCmU*mU*mU*mU
# B4: G000490: TTR sgRNA modified sequence, Human, SEQ ID No. 97; guide sequence of CR003366 (nucleic acid)
# guide: mA*mA*mA*rUrArGrArCrArCrCrArArArUrCrUrUrArCrGrUrUrUrUrArGrAmGmCmUmAmGmAmAmAmUmAmGmCrArArGrUrUrArArArArUrArArGrGrCrUrArGrUrCrCrGrUrUrArUrCrAmAmCmUmUmGmAmAmAmAmAmGmUmGmGmCmAmCmCmGmAmGmUmCmGmGmUmGmCmU*mU*mU*mU
# B5: G000486: TTR sgRNA modified sequence, Human, SEQ ID No. 93; guide sequence of CR003339 (nucleic acid)
# guide: mA*mC*mA*rCrArArArUrArCrCrArGrUrCrCrArGrCrArGrUrUrUrUrArGrAmGmCmUmAmGmAmAmAmUmAmGmCrArArGrUrUrArArArArUrArArGrGrCrUrArGrUrCrCrGrUrUrArUrCrAmAmCmUmUmGmAmAmAmAmAmGmUmGmGmCmAmCmCmGmAmGmUmCmGmGmUmGmCmU*mU*mU*mU
# How the values were obtained:
# [1] = test system: TTR; assay: EC50 and maximum editing in primary human hepatocytes treated with LNP formulated U-depleted Spy Cas9 mRNA and sgRNAs (Tables 19, 21); format: cell-based; parameters: key: % of sequence reads with indels or substitutions over total reads; settings: dose response
# Method: (§1) Primary liver hepatocytes. Primary human liver hepatocytes (PHH) and primary cynomolgus liver hepatocytes (PCH) (Gibco) were cultured per the manufacturer's protocol (Invitrogen, protocol 11.28.2012). In brief, the cells were thawed and resuspended in hepatocyte thawing medium with supplements (Gibco, Cat. CM7000) followed by centrifugation at 100 g for 10 minutes for human and 80 g for 4 minutes for cyno. The supernatant was discarded and the pelleted cells resuspended in hepatocyte plating medium plus supplement pack (Invitrogen, Cat. A1217601 and CM3000). Cells were counted and plated on Bio-coat collagen I coated 96-well plates (ThermoFisher, Cat. 877272) at a density of 33,000 cells/well for human or 60,000 cells/well for cyno (or 65,000 cells/well when assaying effects on TTR protein, described further below). Plated cells were allowed to settle and adhere for 6 or 24 hours in a tissue culture incubator at 37° C. and 5% CO2 atmosphere. After incubation cells were checked for monolayer formation and media was replaced with hepatocyte culture medium with serum-free supplement pack (Invitrogen, Cat. A1217601 and CM4000).
# (§2) For LNPs prepared using the cross-flow technique, the LNPs were formed by impinging jet mixing of the lipid in ethanol with two volumes of RNA solutions and one volume of water. The lipid in ethanol is mixed through a mixing cross with the two volumes of RNA solution. A fourth stream of water is mixed with the outlet stream of the cross through an inline tee. (See WO2016010840 FIG. 2.) The LNPs were held for 1 hour at room temperature, and further diluted with water (approximately 1:1 v/v). Diluted LNPs were concentrated using tangential flow filtration on a flat sheet cartridge (Sartorius, 100 kD MWCO) and then buffer exchanged by diafiltration into 50 mM Tris, 45 mM NaCl, 5% (w/v) sucrose, pH 7.5 (TSS). Alternatively, the final buffer exchange into TSS was completed with PD-10 desalting columns (GE). If required, formulations were concentrated by centrifugation with Amicon 100 kDa centrifugal filters (Millipore). The resulting mixture was then filtered using a 0.2 μm sterile filter. The final LNP was stored at 4° C. or −80° C. until further use.
# (§3) To quantitatively determine the efficiency of editing at the target location in the genome, sequencing was utilized to identify the presence of insertions and deletions introduced by gene editing.
# (§4) Primers were designed around the target site within the gene of interest (e.g. TTR), and the genomic area of interest was amplified.
# (§5) Additional PCR was performed per the manufacturer's protocols (Illumina) to add chemistry for sequencing. The amplicons were sequenced on an Illumina MiSeq instrument. The reads were aligned to a reference genome (e.g., the human reference genome (hg38), the cynomologus reference genome (mf5), the rat reference genome (rn6), or the mouse reference genome (mm10)) after eliminating those having low quality scores. The resulting files containing the reads were mapped to the reference genome (BAM files), where reads that overlapped the target region of interest were selected and the number of wild type reads versus the number of reads which contain an insertion, substitution, or deletion was calculated.
# (§6) The editing percentage (e.g., the “editing efficiency” or “percent editing” or “indel frequency”) is defined as the total number of sequence reads with insertions/deletions (“indels”) or substitutions over the total number of sequence reads, including wild type.
# (§7) Lipid nanoparticle formulations of modified sgRNAs targeting human TTR and the cyno matched sgRNA sequences were tested on primary human hepatocytes and primary cyno hepatocytes in a dose response curve. Primary human and cyno hepatocytes were plated as described in Example 1. Both cell lines were incubated at 37° C., 5% CO2 for 24 hours prior to treatment with LNPs. […]
# [2] = test system: TTR; assay: EC50 and maximum editing in primary cyno hepatocytes treated with LNP formulated U-depleted Spy Cas9 mRNA and sgRNAs (Tables 20, 22); format: cell-based, cynomolgus monkey; parameters: key: % of sequence reads with indels or substitutions over total reads; settings: dose response
# Method: as §1, §2, §3, §4, §5, §6, §7
# [3] = test system: human TTR sequence; assay: Liver editing in humanized TTR mice dosed with LNP formulations (Table 26); format: in vivo, mouse
# [4] = test system: TTR; assay: TTR editing in primary human hepatocytes transfected with Spy Cas9 protein and sgRNAs (Table 12); format: cell-based; settings: primary human hepatocytes transfected with Spy Cas9 protein (RNP) and sgRNAs
# Method: as §1
# […] formation was performed prior to electroporation or transfection of Spy Cas9 protein loaded with guide RNAs (RNPs) onto cells. For dual guide (dgRNAs), individual crRNA and trRNA was pre-annealed by mixing equivalent amounts of reagent and incubating at 95° C. for 2 min and cooling to room temperature. Single guide (sgRNAs) were boiled at 95° C. for 2 min and cooling to room temperature. The boiled dgRNA or sgRNA was incubated with Spy Cas9 protein in Optimem for 10 minutes at room temperature to form a ribonucleoprotein (RNP) complex.
# For RNP lipoplex transfections, cells were transfected with Lipofectamine RNAiMAX (ThermoFisher, Cat. 13778150) per the manufacturer's protocol. Cells were transfected with an RNP containing Spy Cas9 (10 nM), individual guide (10 nM), tracer RNA (10 nM), Lipofectamine RNAiMAX (1.0 μL/well) and OptiMem. RNP formation was performed as described above.
# Transfected cells were harvested post-transfection at 24, 48, or 72 hours. The genomic DNA was extracted from each well of a 96-well plate using 50 μL/well BuccalAmp DNA Extraction solution (Epicentre, Cat. QE09050) per manufacturer's protocol. All DNA samples were subjected to PCR and subsequent NGS analyses, as described herein.
# as §3, §4, §5, §6
# Guides in modified sgRNA format targeting human and/or cyno TTR were delivered to primary human hepatocytes and primary cyno hepatocytes as described in Example 1. […]
# [5] = 1, 0.3, or 0.1 mg/kg, Cas9 mRNA (SEQ ID NO: 1) 1:2 by weight to guide, FIG. 28A
# [6] = Table 19, LNP with U-depleted Spy Cas9 mRNA and human specific sgRNAs
# [7] = Table 20, LNP with U-depleted Spy Cas9 mRNA and human specific sgRNAs
Molecule,"Max Editing ([1]; Table 21, LNP with U-depleted Spy Cas9 mRNA and cyno specific sgRNAs)","Max Editing ([2]; Table 22, LNP with U-depleted Spy Cas9 mRNA and cyno specific sgRNAs)","Liver editing, dose response ([3]; 1, 0.3, 0.1, or 0.03 mg/kg, Cas9 mRNA (SEQ ID NO: 1) 1:1 by weight to guide, FIG. 26A)","Liver editing, dose response [3, 5]",Avg % Deletion [4],Avg % Edit [4],Avg % Insert [4],"Max Editing [1, 6]","Max Editing [2, 7]","Liver editing, dose response ([3]; 1, 0.3, or 0.1 mg/kg, Cas9 mRNA (SEQ ID NO: 1) 1:1 by weight to guide, FIG. 27A)"
B1,91.50,100.05,A dose response for both editing and serum TTR levels was evident,A dose response for both editing and serum TTR levels was evident,,,,,,
B2,,,,,3.83%,65.53%,62.00%,88.70,58.04,
B3,,,,,2.67%,41.40%,38.90%,63.95,61.15,
B4,,,,,9.80%,55.90%,46.13%,94.16,90.76,
B5,,,,A dose response for both editing and serum TTR levels was evident,59.93%,69.73%,9.83%,,,A dose response for both editing and serum TTR levels was evident
